In patent US9896495 (ZEALAND PHARMA A S, dated 2018):
*1 amine or outer side, *2 acyl side, *3 side chain or, on linkers, in order; H or OH if unused. Side-chain parts run from the residue outwards. [ ]: non-standard residue; d: D form. The star is where a group is joined. C18 diacid = O=C(O)CCCCCCCCCCCCCCCCC(=O)*; γGlu = O=C(O)[C@H](CCC(=O)[*:2])N[*:1]; Ac4c = NC1(C(=O)O)CCC1; Aib = CC(C)(N)C(=O)O

B1: H-H-Ac4c-QGTFTSDYSKYLDE-K([17-carboxy-heptadecanoyl]-isoGlu)-AAKDFIEWLESA-NH2 (peptide)
peptide: H-H[Ac4c]QGTFTSDYSKYLDEK([γGlu-C18 diacid])AAKDFIEWLESA-NH2
SMILES: CC[C@H](C)[C@H](NC(=O)[C@H](Cc1ccccc1)NC(=O)[C@H](CC(=O)O)NC(=O)[C@H](CCCCN)NC(=O)[C@H](C)NC(=O)[C@H](C)NC(=O)[C@H](CCCCNC(=O)CC[C@H](NC(=O)CCCCCCCCCCCCCCCCC(=O)O)C(=O)O)NC(=O)[C@H](CCC(=O)O)NC(=O)[C@H](CC(=O)O)NC(=O)[C@H](CC(C)C)NC(=O)[C@H](Cc1ccc(O)cc1)NC(=O)[C@H](CCCCN)NC(=O)[C@H](CO)NC(=O)[C@H](Cc1ccc(O)cc1)NC(=O)[C@H](CC(=O)O)NC(=O)[C@H](CO)NC(=O)[C@@H](NC(=O)[C@H](Cc1ccccc1)NC(=O)[C@@H](NC(=O)CNC(=O)[C@H](CCC(N)=O)NC(=O)C1(NC(=O)[C@@H](N)Cc2c[nH]cn2)CCC1)[C@@H](C)O)[C@@H](C)O)C(=O)N[C@@H](CCC(=O)O)C(=O)N[C@@H](Cc1c[nH]c2ccccc12)C(=O)N[C@@H](CC(C)C)C(=O)N[C@@H](CCC(=O)O)C(=O)N[C@@H](CO)C(=O)N[C@@H](C)C(N)=O
B2: H-H-Aib-QGTFTSDYSKYLDERAAKDFI-K([17-carboxy-heptadecanoyl]-isoGlu-GSGSGG)-WLESA-NH2 (peptide)
peptide: HXQGTFTSDYSKYLDERAAKDFIKWLESA
modifications: Aib at position 2; Lys 24 side chain conjugated to [17-carboxy-heptadecanoyl]-isoGlu-GSGSGG; C-terminal amide
B3: H-H-Ac4c-QGTFTSDYSKYLD-K([17-carboxy-heptadecanoyl]-isoGlu-GSGSGG)-RAAKDFIEWLESA-NH2 (peptide)
peptide: HXQGTFTSDYSKYLDKRAAKDFIEWLESA
modifications: Ac4c at position 2; Lys 16 side chain conjugated to [17-carboxy-heptadecanoyl]-isoGlu-GSGSGG; C-terminal amide
B4: H-H-Ac4c-QGTFTSDYSKYLDERAAKDFIEWLE-K([17-carboxy-heptadecanoyl]-isoGlu-GSGSGG)-A-NH2 (peptide)
peptide: HXQGTFTSDYSKYLDERAAKDFIEWLEKA
modifications: Ac4c at position 2; Lys 28 side chain conjugated to [17-carboxy-heptadecanoyl]-isoGlu-GSGSGG; C-terminal amide
B5: H-H-Aib-QGTFTSDYSKYLDS-K([15-carboxy-pentadecanoyl]-isoGlu)-AAHDFVEWLLSA-NH2 (peptide)
peptide: HXQGTFTSDYSKYLDSKAAHDFVEWLLSA
modifications: Aib at position 2; Lys 17 side chain conjugated to [15-carboxy-pentadecanoyl]-isoGlu; C-terminal amide
B6: H-H-Aib-QGTFTSDYSKYLDE-K([17-carboxy-heptadecanoyl]-isoGlu)-AAKDFIEWLESA-NH2 (peptide)
peptide: HXQGTFTSDYSKYLDEKAAKDFIEWLESA
modifications: Aib at position 2; Lys 17 side chain conjugated to [17-carboxy-heptadecanoyl]-isoGlu; C-terminal amide
B7: H-H-Ac4c-QGTFTSDYSKYLDE-K([17-carboxy-heptadecanoyl]-isoGlu)-RAKDFIEWLESA-NH2 (peptide)
peptide: H-H[Ac4c]QGTFTSDYSKYLDEK([γGlu-C18 diacid])RAKDFIEWLESA-NH2
SMILES: CC[C@H](C)[C@H](NC(=O)[C@H](Cc1ccccc1)NC(=O)[C@H](CC(=O)O)NC(=O)[C@H](CCCCN)NC(=O)[C@H](C)NC(=O)[C@H](CCCNC(=N)N)NC(=O)[C@H](CCCCNC(=O)CC[C@H](NC(=O)CCCCCCCCCCCCCCCCC(=O)O)C(=O)O)NC(=O)[C@H](CCC(=O)O)NC(=O)[C@H](CC(=O)O)NC(=O)[C@H](CC(C)C)NC(=O)[C@H](Cc1ccc(O)cc1)NC(=O)[C@H](CCCCN)NC(=O)[C@H](CO)NC(=O)[C@H](Cc1ccc(O)cc1)NC(=O)[C@H](CC(=O)O)NC(=O)[C@H](CO)NC(=O)[C@@H](NC(=O)[C@H](Cc1ccccc1)NC(=O)[C@@H](NC(=O)CNC(=O)[C@H](CCC(N)=O)NC(=O)C1(NC(=O)[C@@H](N)Cc2c[nH]cn2)CCC1)[C@@H](C)O)[C@@H](C)O)C(=O)N[C@@H](CCC(=O)O)C(=O)N[C@@H](Cc1c[nH]c2ccccc12)C(=O)N[C@@H](CC(C)C)C(=O)N[C@@H](CCC(=O)O)C(=O)N[C@@H](CO)C(=O)N[C@@H](C)C(N)=O
B8: H-H-Aib-QGTFTSDYSKYLD-K([17-carboxy-heptadecanoyl]-isoGlu-GSGSGG)-RAAKDFIEWLESA-NH2 (peptide)
peptide: HXQGTFTSDYSKYLDKRAAKDFIEWLESA
modifications: Aib at position 2; Lys 16 side chain conjugated to [17-carboxy-heptadecanoyl]-isoGlu-GSGSGG; C-terminal amide
B9: H-H-Aib-QGTFTSDYSKYLE-K([17-carboxy-heptadecanoyl]-isoGlu-GSGSGG)-RAAKDFIEWLESA-NH2 (peptide)
peptide: HXQGTFTSDYSKYLEKRAAKDFIEWLESA
modifications: Aib at position 2; Lys 16 side chain conjugated to [17-carboxy-heptadecanoyl]-isoGlu-GSGSGG; C-terminal amide
B10: H-H-Ac4c-QGTFTSDYSKYLDERRAKDFI-K([17-carboxy-heptadecanoyl]-isoGlu-GSGSGG)-WLESA-NH2 (peptide)
peptide: HXQGTFTSDYSKYLDERRAKDFIKWLESA
modifications: Ac4c at position 2; Lys 24 side chain conjugated to [17-carboxy-heptadecanoyl]-isoGlu-GSGSGG; C-terminal amide
B11: H-H-Ac4c-QGTFTSDYSKYLDERRAKDFIEWLE-K([17-carboxy-heptadecanoyl]-isoGlu-GSGSGG)-A-NH2 (peptide)
peptide: HXQGTFTSDYSKYLDERRAKDFIEWLEKA
modifications: Ac4c at position 2; Lys 28 side chain conjugated to [17-carboxy-heptadecanoyl]-isoGlu-GSGSGG; C-terminal amide

Assays:
Test in all cases: cell-based or functional assay
[1] = target: endogenous glucagon receptor of primary rat hepatocytes (rat, UniProt P30082 27-485)
Sequence of endogenous glucagon receptor of primary rat hepatocytes (P30082 27-485): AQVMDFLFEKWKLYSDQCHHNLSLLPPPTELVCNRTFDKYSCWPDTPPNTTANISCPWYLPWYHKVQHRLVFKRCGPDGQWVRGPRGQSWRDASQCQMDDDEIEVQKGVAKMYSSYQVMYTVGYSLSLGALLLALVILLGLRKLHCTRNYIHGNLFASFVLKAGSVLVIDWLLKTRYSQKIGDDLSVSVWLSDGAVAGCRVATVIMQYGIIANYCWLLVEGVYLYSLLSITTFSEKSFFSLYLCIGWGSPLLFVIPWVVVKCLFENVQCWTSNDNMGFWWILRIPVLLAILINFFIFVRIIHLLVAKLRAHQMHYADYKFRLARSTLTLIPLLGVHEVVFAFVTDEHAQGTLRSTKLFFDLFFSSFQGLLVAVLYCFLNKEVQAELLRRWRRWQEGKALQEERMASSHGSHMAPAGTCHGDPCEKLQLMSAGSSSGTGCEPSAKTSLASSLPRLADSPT

[2] = target: T1, endogenous GLP-1 receptor of a murine insulinoma cell line (murine, UniProt O35659 22-463)
T1 sequence (looked up): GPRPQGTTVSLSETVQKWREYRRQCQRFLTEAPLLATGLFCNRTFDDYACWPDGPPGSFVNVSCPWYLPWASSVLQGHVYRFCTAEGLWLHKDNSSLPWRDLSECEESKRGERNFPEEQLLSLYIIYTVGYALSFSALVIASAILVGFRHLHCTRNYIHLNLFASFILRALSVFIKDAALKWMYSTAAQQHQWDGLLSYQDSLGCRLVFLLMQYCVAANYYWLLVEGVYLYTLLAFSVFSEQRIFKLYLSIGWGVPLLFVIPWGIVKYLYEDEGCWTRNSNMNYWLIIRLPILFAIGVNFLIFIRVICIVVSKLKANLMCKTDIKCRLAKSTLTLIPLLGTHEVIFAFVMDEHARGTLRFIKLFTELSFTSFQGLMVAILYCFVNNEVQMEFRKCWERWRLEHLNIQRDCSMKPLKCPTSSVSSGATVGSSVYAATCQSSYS

[3] = target: human glucagon-like peptide 1 receptor (GLP-1R) (human, UniProt P43220 24-463)
[4] = target: human glucagon receptor (Glucagon-R) (human, UniProt P47871 26-477)
Sequence of human glucagon receptor (Glucagon-R) (P47871 26-477): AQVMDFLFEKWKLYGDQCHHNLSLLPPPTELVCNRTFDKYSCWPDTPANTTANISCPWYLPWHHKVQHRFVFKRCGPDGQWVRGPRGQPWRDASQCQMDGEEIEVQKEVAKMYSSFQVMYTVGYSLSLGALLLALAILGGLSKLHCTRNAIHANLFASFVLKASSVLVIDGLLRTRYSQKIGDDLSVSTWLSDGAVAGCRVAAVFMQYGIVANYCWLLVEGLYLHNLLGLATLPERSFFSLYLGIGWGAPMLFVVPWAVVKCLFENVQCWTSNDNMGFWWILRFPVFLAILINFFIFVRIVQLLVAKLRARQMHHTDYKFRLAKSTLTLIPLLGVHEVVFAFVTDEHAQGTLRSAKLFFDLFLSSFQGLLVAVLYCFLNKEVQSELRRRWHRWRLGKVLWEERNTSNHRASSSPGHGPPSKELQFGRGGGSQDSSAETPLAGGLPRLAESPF

Binder	EC50 [nM] (inhibition of glycogen synthesis rate in primary rat hepatocytes) [1]	EC50 [nM] (cAMP in a murine insulinoma cell line) [2]	EC50 hGLP-1R CHO-K1 [nM] (cAMP, AlphaScreen) [3]	EC50 hGCGR CHO-K1 [nM] (cAMP, AlphaScreen) [4]
B1	0.95 nM	0.72 nM	0.56 nM	0.28 nM
B2	0.94 nM	0.15 nM	0.7 nM	1.48 nM
H-H[Aib]QGTFTSDYSKYLEK([Peg3-Peg3-γGlu-C18 diacid])RAAHDFIEWLESA-NH2 [H-H-Aib-QGTFTSDYSKYLE-K([17-carboxy-heptadecanoyl]-isoGlu-Peg3-Peg3)-RAAHDFIEWLESA-NH2]	0.29 nM	0.36 nM	0.8 nM	0.31 nM
B3	0.34 nM	0.47 nM	0.97 nM	0.11 nM
B4	3.63 nM	0.25 nM	0.61 nM	0.92 nM
H-H[Ac4c]QGTFTSDYSKYLDEK([Peg3-Peg3-γGlu-C18 diacid])RAKDFIEWLESA-NH2 [H-H-Ac4c-QGTFTSDYSKYLDE-K([17-carboxy-heptadecanoyl]-isoGlu-Peg3-Peg3)-RAKDFIEWLESA-NH2]	1.79 nM	0.4 nM	0.7 nM	0.45 nM
B5	0.85 nM	0.6 nM	0.38 nM	0.21 nM
B6	1.53 nM	0.6 nM	0.41 nM	1.08 nM
B7	0.45 nM	0.81 nM	0.48 nM	0.07 nM
H-H[Ac4c]HGTFTSDYSKYLDEK([Peg3-Peg3-γGlu-C18 diacid])RAKDFIEWLESA-NH2 [H-H-Ac4c-HGTFTSDYSKYLDE-K([17-carboxy-heptadecanoyl]-isoGlu-Peg3-Peg3)-RAKDFIEWLESA-NH2]	0.11 nM	0.84 nM	0.97 nM	0.07 nM
B8	0.21 nM	0.65 nM	0.83 nM	0.18 nM
H-H[Aib]QGTFTSDYSKYLDK([Peg3-Peg3-γGlu-C18 diacid])RAAKDFIEWLESA-NH2 [H-H-Aib-QGTFTSDYSKYLD-K([17-carboxy-heptadecanoyl]-isoGlu-Peg3-Peg3)-RAAKDFIEWLESA-NH2]	0.11 nM	0.69 nM	1.76 nM	0.13 nM
B9	0.8 nM	0.54 nM	1.43 nM	0.44 nM
H-H[Ac4c]QGTFTSDYSKYLDERAAKDFIKWLESA-NH2 (not fully specified (residue 24)) [H-H-Ac4c-QGTFTSDYSKYLDERAAKDFI-K([17-carboxy-heptadecanoyl]-isoGlu-GSGSGG)-WLESA-NH2]	0.43 nM	0.37 nM	0.33 nM	0.52 nM
B10	0.19 nM	0.38 nM	0.6 nM	0.18 nM
B11	0.19 nM	0.34 nM	0.53 nM	0.16 nM
